Measured values taken from patent publication US20210403579A1 (DELINIA, published 2021).
Substitutions are numbered along the chain they refer to. One block for each binder: values may come before it.

Biological target: T1, Human ST2 (human, UniProt Q01638 19-328, limits assumed)
T1 construct: also called human ST2 protein; Interleukin 1 receptor-like 1
T1 sequence (looked up): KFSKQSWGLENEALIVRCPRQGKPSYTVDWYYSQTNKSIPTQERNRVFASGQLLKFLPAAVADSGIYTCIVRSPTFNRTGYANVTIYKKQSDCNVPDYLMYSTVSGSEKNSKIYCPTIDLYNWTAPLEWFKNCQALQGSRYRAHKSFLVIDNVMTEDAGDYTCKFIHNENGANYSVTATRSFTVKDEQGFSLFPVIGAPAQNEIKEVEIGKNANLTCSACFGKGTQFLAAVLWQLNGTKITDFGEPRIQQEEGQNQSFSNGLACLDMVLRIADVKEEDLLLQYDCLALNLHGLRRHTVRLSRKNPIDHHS
Assay: SPR (Carterra), antibody immobilized, ST2 analyte
Protocol: Binding of the reformatted human ST2 antibodies to the human and mouse ST2 proteins was evaluated by surface plasmon resonance (SPR), using a high throughput antibody screening and characterization platform from Carterra (Salt Lake City, Utah).

Kd: 704 nM | koff: 0.13 s⁻¹ | kon: 190000 M⁻¹ s⁻¹
B1: Human ST2 IgG1 Antibody 68 (antibody, V domains shown)
VH: QVQLVQSGAEVKKPGSSVKVSCKASGGTFSSYAISWVRQAPGQGLEWMGGIIPVVGSPDYAQRFQGRVTITADESTSTAYMELSSLRSEDTAVYYCARHSIVGATATSMDVWGKGTTVTVSS
VL: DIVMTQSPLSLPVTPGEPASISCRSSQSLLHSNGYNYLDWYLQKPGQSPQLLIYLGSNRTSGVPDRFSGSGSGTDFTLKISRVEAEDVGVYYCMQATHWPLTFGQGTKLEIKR
notes: IgG1; also called ST2 Antibody 68

Kd: 603 nM | koff: 0.085 s⁻¹ | kon: 140000 M⁻¹ s⁻¹
B2: Human ST2 IgG1 Antibody 73 (antibody, V domains shown)
VH: EVQLLESGGGLVQPGGSLRLSCAASGFAFSSHWMHWVRQAPGKGLEWVAVISYDGSNKYYADSVKGRFTISRDNSKNTLYLQMNSLRAEDTAVYYCARDRGMIDYWGQGTLVTVSS
VL: DIQMTQSPSSLSASVGDRVTITCRASQGIGSWLAWYQQKPGKAPKLLIHAATKLQTGVPSRFSGSGSGTDFTLTISSLQPEDFATYYCQQSYSTPFTFGPGTKVDIKR
notes: IgG1; also called ST2 Antibody 73

Kd: 140 nM | koff: 0.072 s⁻¹ | kon: 510000 M⁻¹ s⁻¹
B3: Human ST2 IgG1 Antibody 57 (antibody, V domains shown)
VH: QVQLVQSGAEVKKPGASVKVSCKASGYTFTGYYMHWVRQAPGQGLEWMGVINPSGGSTSYAQKFQGRVTMTRDTSTSTVYMELSSLRSEDTAVYYCARGDYYYGSGSDYYYYYGMDVWGQGTLVTVSS
VL: DIQMTQSPSSLSASVGDRVTITCRASQGVTSWLAWYQQKPGKAPKLLIYAASTLQSGVPSRFSGSGSGTDFTLTISSLQPEDFATYYCQQANSFPLTFGGGTKVEIKR
notes: IgG1; also called ST2 Antibody 57

Kd: 1100 nM | koff: 0.12 s⁻¹ | kon: 110000 M⁻¹ s⁻¹
B4: Human ST2 IgG1 Antibody 60 (antibody, V domains shown)
VH: QVQLVQSGAEVKKPGASVKVSCKASGYTFTDHYLHWVRQAPGQGLEWMGIINPSGGYTSHAQKFQGRVTMTRDTSTSTVYMELSSLRSEDTAVYYCARDRFRELLGSRYYGMDVWGQGTTVTVSS
VL: B3 VL with G28D, V29L, T30S, S31N, W32H, A91Y, N92H, S93D, F94W, G100Q
notes: IgG1; also called ST2 Antibody 60

Kd: 912 nM | koff: 0.12 s⁻¹ | kon: 140000 M⁻¹ s⁻¹
B5: Human ST2 IgG1 Antibody 71 (antibody, V domains shown)
VH: QVQLVQSGAEVKKPGASVKVSCKASGGTFSNYGVSWVRQAPGQGLEWMGGINPSRGTTTYAQKFQGRVTMTRDTSTSTVYMELSSLRSEDTAVYYCAKGDIVVVPAAMFSLGPGYYYYMDVWGKGTTVTVSS
VL: B3 VL with G28S, V29I, T30S, W32Y, A34N, T53S, L96I, G100Q, V104L
notes: IgG1; also called ST2 Antibody 71

Kd: 628 nM | koff: 0.14 s⁻¹ | kon: 220000 M⁻¹ s⁻¹
B6: Human ST2 IgG1 Antibody 58 (antibody, V domains shown)
VH: EVQLLESGAEVKKPGSSVKVSCKASGGTFSSYAISWVRQAPGQGLEWMGGIIPIFGTANYAQKFQGRVTITADKSTSTAYMELSSLRSEDTAVYYCARPRLAVAGGWYFDLWGRGTLVTVSS
VL: DIQMTQSPSSLSASVGDRVTITCQASQDISNYLNWYQQKPGKAPKLLIYAASSLQSGVPSRFSGSGSGTDFTLTISSLQPEDFATYYCQQSFSSTPTFGQGTKLEIKR
notes: IgG1; also called ST2 Antibody 58

Kd: 360 nM | koff: 0.041 s⁻¹ | kon: 120000 M⁻¹ s⁻¹
B7: Human ST2 IgG1 Antibody 75 (antibody, V domains shown)
VH: EVQLLESGGGLVQHGGSLRLSCAASGFTFSSYWMSWVRQAPGKGLEWVSSISSSSSYIYYADSVKGRFTISRDNSKNTLYLQMNSLRAEDTAVYYCARDIAGYFDLWGRGTLVTVSS
VL: B6 VL with D28S, N31S, S91G, F92Y, S93L, S94T, T95P, P96Y
notes: IgG1; also called ST2 Antibody 75

Kd: 738 nM | koff: 0.1 s⁻¹ | kon: 140000 M⁻¹ s⁻¹
B8: Human ST2 IgG1 Antibody 67 (antibody, V domains shown)
VH: QVQLVQSGAEVKKPGASVKVSCKASGGTFSSYAISWVRQAPGQGLEWMGRINPNSGGTVYAQKFQGRVTMTRDTSTSTVYMELSSLRSEDTAVYYCARDTSIAARLNPDYYYYYGMDVWGQGTTVTVSS
VL: DIQMTQSPSSLSASVGDRVTITCRASQSISSWLAWYQQKPGKAPKLLIYAASNLQSGVPSRFSGSGSGTDFTLTISSLQPEDFATYYCQQSYSTPVTFGQSTRLEIKR
notes: IgG1; also called ST2 Antibody 67

Kd: 335 nM | koff: 0.082 s⁻¹ | kon: 240000 M⁻¹ s⁻¹
B9: Human ST2 IgG1 Antibody 72 (antibody, V domains shown)
VH: EVQLLESGGGLVQPGGSLRLSCAASGFTFSSYGMSWVRQAPGKGLEWLAVIWSDGGHKYYADSVKGRFTISRDNSKNTLYLQMNSLRAEDTAVYYCAREVRGWFDPWGQGTLVTVSS
VL: B8 VL with Q27E, S28N, S30G, S31T, A50K, N53S, Q55D, V96Y, S101G, R103K
notes: IgG1; also called ST2 Antibody 72

Kd: 133 nM | koff: 0.11 s⁻¹ | kon: 820000 M⁻¹ s⁻¹
B10: Human ST2 IgG1 Antibody 76 (antibody, V domains shown)
VH: QVQLVQSGAEVKKPGSSVKVSCKASGYTFTDYYMHWVRQAPGQGLEWMGVIIPVLGAAKYAQKFQGRVTITADESTSTAYMELSSLRSEDTAVYYCAKGWGAFDIWGQGTMVTVSS
VL: EIVMTQSPATLSVSPGERATLSCRASQSVSSYLAWYQQKPGQAPRLLIYGASTRASGIPARFSGSGSGTEFTLTISSLQSEDFAVYYCQQYYSYPWTFGQGTKVEIKR
notes: IgG1; also called ST2 Antibody 76

Kd: 377 nM | koff: 0.099 s⁻¹ | kon: 260000 M⁻¹ s⁻¹
B11: Human ST2 IgG1 Antibody 77 (antibody, V domains shown)
VH: QVQLVQSGAEVKKPGSSVKVSCKASGYTFSDHYIHWVRQAPGQGLEWMGGIIPILGTANYAQKFQGRVTITADESTSTAYMELSSLRSEDTAVYYCATDIAVAGTGFDYWGQGTLVTVSS
VL: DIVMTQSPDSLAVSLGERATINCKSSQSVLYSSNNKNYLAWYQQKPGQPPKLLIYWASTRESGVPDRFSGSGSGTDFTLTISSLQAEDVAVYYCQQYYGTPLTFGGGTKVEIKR
notes: IgG1; also called ST2 Antibody 77

Kd: 60 nM | koff: 0.012 s⁻¹ | kon: 200000 M⁻¹ s⁻¹
B12: Human ST2 IgG1 Antibody 74 (antibody, V domains shown)
VH: EVQLLESGGGLVQPGGSLRLSCAASGFTFSSYWMSWVRQAPGKGLEWVSSISSSSSYIYYADSVKGRFTISRDNSKNTLYLQMNSLRAEDTAVYYCARDQGWFDPWGQGTLVTVSS
VL: DIQMTQSPSSLSASVGDRVTITCRASRAIGNNLSWYQQKPGKAPKLLIYTASSLQSGVPSRFSGSGSGTDFTLTISSLQPEDFATYYCQQSYSTPYTFGQGTKVEIKR
notes: IgG1; also called ST2 Antibody 74

Kd: 366 nM | koff: 0.12 s⁻¹ | kon: 330000 M⁻¹ s⁻¹
B13: Human ST2 IgG1 Antibody 64 (antibody, V domains shown)
VH: QVQLVQSGAEVKKPGSSVKVSCKASGYFFTSYGISWVRQAPGQGLEWMGGVIPISGTANYAQSFQGRVTITADESTSTAYMELSSLRSEDTAVYYCARDENGAFDIWGQGTTVTVSS
VL: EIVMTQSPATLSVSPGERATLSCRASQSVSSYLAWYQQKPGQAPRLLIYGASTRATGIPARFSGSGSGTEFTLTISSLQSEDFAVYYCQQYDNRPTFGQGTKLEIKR
notes: IgG1; also called ST2 Antibody 64

Kd: 268 nM | koff: 0.099 s⁻¹ | kon: 370000 M⁻¹ s⁻¹
B14: Human ST2 IgG1 Antibody 70 (antibody, V domains shown)
VH: QVQLVQSGAEVKKPGSSVKVSCKASGYAFTDYFIHWVRQAPGQGLEWMGGIIPIFGTANYAQKFQGRVTITADKSTSTAYMELSSLRSEDTAVYYCARVAYGAFDIWGQGTMVTVSS
VL: EIVMTQSPATLSVSPGERATLSCRASQSVSSSYLAWYQQKPGQAPRLLIYGASTRATGIPARFSGSGSGTEFTLTISSLQSEDFAVYYCQQYNNWPLTFGGGTKVEIKR
notes: IgG1; also called ST2 Antibody 70

Kd: 563 nM | koff: 0.14 s⁻¹ | kon: 260000 M⁻¹ s⁻¹
B15: Human ST2 IgG1 Antibody 61 (antibody, V domains shown)
VH: QVQLVQSGAEVKKPGSSVKVSCKASGGTFSNYAISWVRQAPGQGLEWMGGIIPVFGTATYAQKFQGRVTITADESTSTAYMELSSLRSEDTAVYYCARVTAMGVGWYFDLWGRGTLVTVSS
VL: DIVMTQSPLSLPVTPGEPASISCRSSQSLLHSNGYNYLDWYLQKPGQSPQLLIYAASSLQSGVPDRFSGSGSGTDFTLKISRVEAEDVGVYYCMQSLQTPPTFGQGTKLEIKR
notes: IgG1; also called ST2 Antibody 61

Kd: 71 nM | koff: 0.029 s⁻¹ | kon: 410000 M⁻¹ s⁻¹
B16: Human ST2 IgG1 Antibody 69 (antibody, V domains shown)
VH: QVQLVQSGAEVKKPGASVKVSCKASGYTFSDYYVHWVRQAPGQGLEWMGWISAYNGNTNYAQKLQGRVTMTRDTSTSTVYMELSSLRSEDTAVYYCARGSLDIWFREPGVYMDVWGKGTTVTVSS
VL: B15 VL with S96A, P101I, L109V
notes: IgG1; also called ST2 Antibody 69

Kd: 96 nM | koff: 0.043 s⁻¹ | kon: 450000 M⁻¹ s⁻¹
B17: Human ST2 IgG1 Antibody 63 (antibody, V domains shown)
VH: QVQLVQSGAEVKKPGSSVKVSCKASGGTFSSDAINWVRQAPGQGLEWMGGIVPAFGTANYAQKFQGRVTITADESTSTAYMELSSLRSEDTAVYYCARSSSSWPYYYYYMDVWGKGTTVTVSS
VL: B15 VL with H31L, S32N, Y35N, Y37F, L38I, S58I, S61G, S96A, L109V
notes: IgG1; also called ST2 Antibody 63

Kd: 176 nM | koff: 0.0028 s⁻¹ | kon: 16000 M⁻¹ s⁻¹
B18: Human ST2 IgG1 Antibody 66 (antibody, V domains shown)
VH: QVQLVQSGAEVKKPGSSVKVSCKASGGTFSSNAISWVRQAPGQGLEWMGGIIPIFGTANYAQKFQGRVTITADESTSTAYMELSSLRSEDTAVYYCAGSPTGTPRVVFDYWGQGTLVTVSS
VL: B15 VL with S96A, P101I, K108R
notes: IgG1; also called ST2 Antibody 66

Kd: 1000 nM | koff: 0.19 s⁻¹ | kon: 190000 M⁻¹ s⁻¹
B19: Human ST2 IgG1 Antibody 59 (antibody, V domains shown)
VH: EVQLLESGGGVVQPGRSLRLSCAASGFTFSSYWMSWVRQAPGKGLEWVSSISSDSSYKYYADSVKGRFTISRDNSKNTLYLQMNSLRAEDTAVYYCARDGLRWDAFDIWGQGTMVTVSS
VL: not shown
notes: IgG1; also called ST2 Antibody 59

Kd: 71 nM | koff: 0.068 s⁻¹ | kon: 960000 M⁻¹ s⁻¹
B20: Human ST2 IgG1 Antibody 62 (antibody, V domains shown)
VH: QVQLVQSGAEVKKPGSSVKVSCKASGYIFTNYWIQWVRQAPGQGLEWMGGIIPIFETANYAQKFQGRVTITADDSTSTAYMELSSLRSEDTAVYYCARLGDRGDFDYWGQGTLVTVSS
VL: DIVMTQSPDSLAVSLGERATINCKSSQSISHSPNTRDYLAWYQQKPGQPPKLLIYWASTRESGVPDRFSGSGSGTDFTLTISSLQAEDVAVYYCQQYYRFPLAFGQSTKVEIKR
notes: IgG1; also called ST2 Antibody 62
